# Experimental data published in the nanobody polyreactivity screen of Harvey et al. (2022).
# Test: yeast display, Sf9 membrane polyspecificity reagent, FACS + sequencing; frameworks hold sequencing errors
# Procedure, shortened: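 Galactose-induced (36–48 hours) yeast carrying a synthetic nanobody display library were exposed to 10% biotinylated, detergent-solubilized Sf9 membrane reagent at 4 °C for 1 hour. FACS followed streptavidin microbead enrichment, using low and high (top ~1%) gates for expression (anti-HA) and reagent binding (streptavidin). Colony PCR, MiSeq 2 × 250 sequencing and CDR-length filtering followed. Labels for polyreactivity reflect the gate of origin.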
row,Sequence,polyreactivity (PSR sort gate)
1,QVQLVESGGGLVQAGGSLRLSCAASGSNFLDNAMGWYRQAPGKERELVAAITSSGGSTYYADSVKGRFTISRDNAKNTVYLQMNSLKPEDTAVYYCAADEWIVHEGYYSSYYYWGQGTQVTVSS,low polyreactivity
2,QVQLVESGGGLVQAGGSLRLSCAASGSNFLRNAMGWYRQAPGKERELVAAIRWNAGSTYYADSVKGRFTISRDNAKNTVYLQMNSLKPEDTAVYFCAADGYYGRGYWIRTLKFDYWGQGTQVTVSS,high polyreactivity
3,QVQLVESGGGLVQAGGSLRLSCAASGSNFLYSAMGWYRQAPGKERELVAVISWSGVSTYYADSVKGRFTISRDNAKNTVYLQMNSLKPEDTAVYYCNTGNHYIRTYGYWGQGTQVTVSS,low polyreactivity
4,QVQLVESGGGLVQAGGSLRLSCAASGSNFPYYALGWYRQAPGNERELVATITYRGGSTNYADSVKGRFTISRDNAKNTVYLQMNSLKPEDTAVYYCADYGYVLASPYPYSFVKLGYWGQGTQVTVSS,low polyreactivity
5,QVQLVESGGGLVQAGGSLRLSCAASGSNFSSNAMGWYRQAPGKERELFAAITWSGGSTYYADSVKGRFTISRDNAKKTVYFEMNSLKPEDTAGFYCNARRNVRQTFGYEYWGQGTQVTVSS,high polyreactivity
6,QVQLVESGGGLVQAGGSLRLSCAASGSNFSYYAMGWYRQAPGKERELVAAITWRSGRTYYADSVKGRFTISRDNAKNTVYLQMNSLKPEDTAVYYCAAYWWRVKYHGYYYWGQGTQVTVSS,high polyreactivity
7,QVQLVESGGGLVQAGGSLRLSCAASGSNFTFNALGWYRQAPGKERELVAAISKSGDRTYADSVKGRFTISRDNAKNTVYLQMNSLKPDDTAVYYCAADFSVSRYDYWGQGTQVTVSS,low polyreactivity
8,QVQLVESGGGLVQAGGSLRLSCAASGSNFTLYAMGWYRPAPGKERELVAAISRRGDRTYYADSVKGRFTISRDNAKNTVYLQMNSLKPADTAVYSCNARRAPPLPYYYWGQGTQVTVSS,high polyreactivity
9,QVQLVESGGGLVQAGGSLRLSCAASGSNFTSYAMGWYRQAPGKERELVAAITRGGRTYYADSVKGRFTISRDNAKNTVYLQMNSLKPEDTAVFYCNAPGYRGYEYWGQGTQVTVSS,high polyreactivity
10,QVQLVESGGGLVQAGGSLRLSCAASGSNFTTYSMGWYRQATGKERELVAASTSGSSTNYADSVKGRFTISRDNAKNTVYLQMNSLKPEDTAVYYCAVDREWPCYYYAMSKMYYWGQGTQVTVSS,low polyreactivity
11,QVQLVESGGGLVQAGGSLRLSCAASGSNFVGYAMGWYRQAPGKERELVAGITASGTNTYYADSVKGRFTISRDNAKNTVYLQMNSLKPEDTAVYYCAAESNRRFEGEYWGQGTQVTVSS,high polyreactivity
12,QVQLVESGGGLVQAGGSLRLSCAASGSNFVLYAMGWYRQAPGKESELVAAISSSGGSTYADSVKGRFTISRDNAKNTVYLQMNSLKPEDTAVYYCARDVYLSDPPRDYDYWGQGTQVTVSS,low polyreactivity
13,QVQLVESGGGLVQAGGSLRLSCAASGSNFVRNVMGWYRQAPGKERELVAGISWNGGSTFYADSVKGRFTISRDNAKNTVYLQMNCLKPEDTAVYYCATPYGRHGWFYLYDYWGQGTLVTVSS,low polyreactivity
14,QVQLVESGGGLVQAGGSLRLSCAASGSNFVTNAMGWYRQAPGKERELVAAISVSGGSTYYADSVKGRFTFSRDNAKNTVYLQMNSLKPEDTEVYYCAADGFIGCRHIYEYWGQGTQVTVSS,low polyreactivity
15,QVQLVESGGGLVQAGGSLRLSCAASGSNFVYNAMGWYRQAPGKERELVAAISGSGDSTYYADSVKGRFTISRDNAKNTVYLQMNSLKPEDTAVYYCAARMSTADFYKGDYWGQGTQVTVSS,low polyreactivity
16,QVQLVESGGGLVQAGGSLRLSCAASGSNKQNAMGWYRQSPGKERELLARISKYGGSTYADSVKGRFTISRDNAKNTVYLQMNSLKPEDTAVYYCNAVKRDRNHHATKCEYAYWGQGTPVTVSS,low polyreactivity
17,QVQLVESGGGLVQAGGSLRLSCAASGSNLSAYAMGWYRQAPGKERELVAAISWSGGSTYYADSVKGRFTISRDNAKNTVYFQMNSLKPEDTAVYYCATVNKKWRRYDYWGQGSQVTVSS,high polyreactivity
18,QVQLVESGGGLVQAGGSLRLSCAASGSPVSRYALGWYRQAPGKERELVAAFSWGGNTYYADSVKGRFTISRDNAKNTVYLQMKSLKPEDTAVYYCNRYSKLYNTMDYWGQGTQVTVSS,high polyreactivity
19,QVQLVESGGGLVQAGGSLRLSCAASGSRNAMGWYRQAPGKESEFVAAITWNGGSTYYADSVKGRFTISRDNAKNTVYLQMNSLKPEDTAVYYCNKREVFIYGTTYDYWRQGTQVTVSS,low polyreactivity
20,QVQLVESGGGLVQAGGSLRLSCAASGSSFAKYAMGWYRQAPGKERELVATISWSGTSTYYADSVKGRFTISRDNAKNTVYLQMNSLKPEDTAVYYCDADTECVGVNHIYDYWGQGNQVTVSS,low polyreactivity
21,QVQLVESGGGLVQAGGSLRLSCAASGSSFDIYVMGWYRQAPGKERELLAAISRVGNTSYADSVKGRFTISRDNGKNTVYLQMNKHETGIYRGHYCGAGLVGAGYITYNDYDYWGQGTQVSVSS,low polyreactivity

row,Sequence,polyreactivity (PSR sort gate)
1,QVQLVESGGGLVQAGGSLRLSCAASGSSFDPYAMGWYRQAPGKERELVATITYSGGRTYYADSVKGRFTISRDNAKNTVYLQMNSLKPEDTAVYYCAADWDPGYYVQYGYDYWGQGTQVTVSS,low polyreactivity
2,QVQLVESGGGLVQAGGSLRLSCAASGSSFRIYAMGWYRQAPGKERELVAAISWSSGSTYYADSVKGRFTISRDNAKNTDYLPMNSLKPEDTAVYYCATYARRSGYYYWGQGTQVTVSS,high polyreactivity
3,QVQLVESGGGLVQAGGSLRLSCAASGSSFRRYAMGWYRQAPGKERELVATIRSGGSTTYADSVKGRFTISRDNAKNTVYLQMNSLKPEDTAVYFFAAGTKPSYYYWGQGTQVTVSS,low polyreactivity
4,QVQLVESGGGLVQAGGSLRLSCAASGSSFRSNDMGWYRQAPGKERELVARITSSVGSTYYADSVKGRFTISRDNAKNTVYLQMNSLKPEDTAVYYCAKRYYHYPYGYRDYDYWGQGTQVTVSS,low polyreactivity
5,QVQLVESGGGLVQAGGSLRLSCAASGSSFSSYAMGWYRQAPGKERELVASISRRGGSTYYADSVKGRFTISRDNAKNTGYLQMNSLNPEDTAVYYCNAPYAGMGYWGQGTQVTVSS,low polyreactivity
6,QVQLVESGGGLVQAGGSLRLSCAASGSSKLRLWDGIDRRLGQKGSWLPLFVLVVLRNYADSVKGRFTISSDNAKNTVYLQMNSLKPEDTAVYYCAATPIGSGGWGDYWGQGTQVTVSS,low polyreactivity
7,QVQLVESGGGLVQAGGSLRLSCAASGSSLTYNAMGWYRQAPGKERELVAVISARGGRTYYADSVKGRFTISRDNAKNTVYLQMNSLKPEDTAVYYCAAVFYYSYYRITSGDYWGQGTQVTVSS,high polyreactivity
8,QVQLVESGGGLVQAGGSLRLSCAASGSTCGTYAMGWYRQAPGKERELVATISLSGGSTYYADSVKGRFTISRDNAKNTVYLQMNSLKPEDTAVYYCTVKSSYSEYDYWGQGTQVTVSS,low polyreactivity
9,QVQLVESGGGLVQAGGSLRLSCAASGSTCSRNAMGWYRQAPGKERELVAAINYSGGITYYADSVKGRFTISRDNAKNTVYLQMNSLKPEDTAVYYGAAVATNVPTHGRPSRRAYDYWGQGTQVTVSS,low polyreactivity
10,QVQLVESGGGLVQAGGSLRLSCAASGSTCWSNAMGWYRQAPGKERELVAGISWSDGSTYADSVKGRFTISRDNAKNTVYLQMNSLKPEDTAVYYCAAADNYRGYTYEYDYWGQGTQVTVSS,low polyreactivity
11,QVQLVESGGGLVQAGGSLRLSCAASGSTFAANAMGWYRQAPGKERELFAVIRRGGSTTYADSVKGRFTISRDNAKNTVYLQMNSLKPEDTEVYYCNARVTLGRPLFTYLVRYEYWGQGTQVTVSS,high polyreactivity
12,QVQLVESGGGLVQAGGSLRLSCAASGSTFAANAMGWYRQAPGKERELVAAITSSGGSTYYADSVKGRFTISLDNEKNTVYLQMNSLKPEDTAVYYCNKDIERYVRIYDSWGQGTQVTVSS,low polyreactivity
13,QVQLVESGGGLVQAGGSLRLSCAASGSTFADNAMGWYRQAPGKERELVATITDGGSTNYADSVKGRFTISRDNAKNTVYLQMNSLKPEDTAVYYCNADTHARWTGVKGTYSDYDYWGQGTQVTVSS,low polyreactivity
14,QVQLVESGGGLVQAGGSLRLSCAASGSTFADYVMGWYRQAPGKERELVAAISRSGGSTYYADSEKGRFTISRDTAKNTVYLQTNSLKPEDTAVYYCAAVKARRYDYWGQGTQVTVSS,high polyreactivity
15,QVQLVESGGGLVQAGGSLRLSCAASGSTFAFNAMGWYRHAPGKERELVATISQSGGSTYYADSVKGRFTFSRDNAKNTVYLQKNSLKPEDTSVYYCAKRYWSKWYGRYDYWRQGTQVTVSS,low polyreactivity
16,QVQLVESGGGLVQAGGSLRLSCAASGSTFAFNAMGWYRQAPGKERELVATISQSGGSTYYADSVKGRFTISRDNAKNTVYLQMNSLKPEDTAVYYCAKRYWSKWYGRYEYWGQGTQVTVSS,low polyreactivity
17,QVQLVESGGGLVQAGGSLRLSCAASGSTFAFYDMGWYRQAPGKERELVAAISQSDGDTYYADSVKGRFTISRDNAKNTVYLQMNSLKPEDTAVYYCAAETSHNPEYERGSDYWGQGTQVTVSS,low polyreactivity
18,QVQLVESGGGLVQAGGSLRLSCAASGSTFAGNAMGWYRQAPGKERELVAGITSSGARTYYADSVKGRFTISRDNAKNTVYLQMNSLKPEDTAVYYCNKYHFSPYDYWGQGTQVTVSS,high polyreactivity
19,QVQLVESGGGLVQAGGSLRLSCAASGSTFAGYAMGWYRQAPGKERELVAAISKRGTSTYYADSVKGRFTISRDNAKNTVYLQMNSLKPEDTAVYYCAARTYASYFKLYYWGQGTQVTVSS,high polyreactivity
20,QVQLVESGGGLVQAGGSLRLSCAASGSTFAHNAMGWYRQAPGKERELVAAISRRGGSTYYADSVKGRFTISRDNAQNTVYLQMNSLKPEDTAVYYCNAVAHNVRVYRFYPGWAGLDYWGQGTQVTVSS,high polyreactivity
